Test results as given in patent US20230052369A1 (Zymeworks, published 2023).

How the values were obtained:
[1] = biological target: T1, full-length human FRα, on 293E cells (human, UniProt P15328 25-234); assay: flow cytometry, 293E cells expressing FRα
T1 construct: also called folate receptor alpha; FOLR1
Experimental: Antibodies were diluted in 50 μl FB (PBS 2% FCS) 1:3 from stock in wells of a 96 V-well plate, and cells added on top. The cells were then left on ice for 30 minutes for the antibodies to bind. The cells were then washed twice in FB, and incubated in 50 μl FB containing 2 μg/ml goat anti-human Alexa647 antibody (Jackson Immunoresearch). The cells were then left on ice for a further 20 minutes, washed twice in FB, resuspended in 100 μl FB and analyzed on a BD Fortessa™ X20. The subsequent data files were analyzed using FlowJo™ and Prism 7 (GraphPad).

[2] = biological target: T2, purified human monomeric 4-1BB (human, UniProt Q07011 24-186); assay: SPR, Ab captured, monomeric 4-1BB injected
T2 construct: the assay used the 4-1BB part released by Factor Xa with the Fc removed; also called h4-1BB; human 4-1BB
T2 sequence (Q07011 other isoform, or with tags, fused parts or gaps limits assumed): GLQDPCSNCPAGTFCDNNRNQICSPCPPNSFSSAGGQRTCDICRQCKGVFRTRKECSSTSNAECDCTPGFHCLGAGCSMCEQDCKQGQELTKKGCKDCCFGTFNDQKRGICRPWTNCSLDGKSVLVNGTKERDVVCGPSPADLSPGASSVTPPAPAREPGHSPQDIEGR
Experimental: The anti-human Fc surface was prepared on a CMS Series S sensorchip by standard amine coupling methods as described by the manufacturer (GE Healthcare). Briefly, immediately after EDC/NHS activation, a 25 μg/mL solution of anti-human Fc in 10 mM NaOAc pH 4.5 was injected at a flow rate of 10 μL/min for 420 s until approximately 2000 resonance units (RUs) were immobilized on all four flow cells. The remaining active groups were quenched by a 420 s injection of 1M ethanolamine at 10 μL/min.
Antibodies for analysis were captured onto the anti-Fc surface by injecting 5 μg/mL solutions at a flow rate of 10 μL/min for 60 s. Using single-cycle kinetics, five concentrations of a two-fold dilution series of 4-1BB starting at 40 nM (for both supernatant and purified antibody runs) with a blank buffer control were sequentially injected at 40 μL/min for 180 s with a 600 s dissociation phase, resulting in a set of sensorgrams with a buffer blank reference. Experiments were performed at a constant temperature of 25° C. The anti-human Fc surfaces were regenerated to prepare for the next injection cycle by one pulse of 10 mM Glycine/HCl pH 1.5 for 120 s at 40 μL/min. Blank-subtracted sensorgrams were analyzed using Biacore™ T200 Evaluation Software v3.0. The blank-subtracted sensorgrams were then fit to the 1:1 Langmuir binding model.
Variants purified by SEC were assessed for binding to human 4-1BB.

T1 sequence (P15328 25-234 limits assumed): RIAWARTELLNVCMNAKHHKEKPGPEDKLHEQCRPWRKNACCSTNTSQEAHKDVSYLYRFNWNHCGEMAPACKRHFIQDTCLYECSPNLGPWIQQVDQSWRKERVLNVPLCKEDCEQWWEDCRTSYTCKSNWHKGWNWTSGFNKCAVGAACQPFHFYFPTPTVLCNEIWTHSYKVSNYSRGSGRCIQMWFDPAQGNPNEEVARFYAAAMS

Row | Binder | binding result [1] | Kd [2] [nM]
1 | v23658 (bispecific antibody, human IgG1, kappa, L234A L235A, also called 4E6 x 8K22 (VLVH) 2x1) heavy 1: QVQLKESGPGLVAPSQSLSITCTVSGFSLTSYAINWVRQPPGKGLEWLGVLWPGGGTNYNSALKSRLSISKDNSKSQVFLKMNSLQTDDTARYYCARGSGTWYFDVWGAGTTVTVSSASTKGPSVFPLAPSSKSTSGGTAALGCLVKDYFPEPVTVSWNSGALTSGVHTFPAVLQSSGLYSLSSVVTVPSSSLGTQTYICNVNHKPSNTKVDKKVEPKSCDKTHTCPPCPAPEAAGGPSVFLFPPKPKDTLMISRTPEVTCVVVSVSHEDPEVKFNWYVDGVEVHNAKTKPREEQYNSTYRVVSVLTVLHQDWLNGKEYKCKVSNKALPAPIEKTISKAKGQPREPQVYVYPPSRDELTKNQVSLTCLVKGFYPSDIAVEWESNGQPENNYKTTPPVLDSDGSFALVSKLTVDKSRWQQGNVFSCSVMHEALHNHYTQKSLSLSPGGGGGDIVMTQTPASVEAAVGGTVTIKCQASQSIYSSLAWYQQKPGQSPKLLIYDASHLASGVPSRFSGSRYGTEFTLTISGVQCDDAATYYCQGGWYSSAATYVPNTFGGGTEVVVKGGGGSGGGGSGGGGSQEQLVESGGGLVQPEGSLTLTCKASGFTISNNYYMCWVRQAPGKGLEWIACIYGGISGRTYYASWAKGRFTISKTSSTTVTLQMTSLTAADTATYFCVRGYVGTSNLWGPGTLVTVSS heavy 2: QVQLKESGPGLVAPSQSLSITCTVSGFSLTSYAINWVRQPPGKGLEWLGVLWPGGGTNYNSALKSRLSISKDNSKSQVFLKMNSLQTDDTARYYCARGSGTWYFDVWGAGTTVTVSSASTKGPSVFPLAPSSKSTSGGTAALGCLVKDYFPEPVTVSWNSGALTSGVHTFPAVLQSSGLYSLSSVVTVPSSSLGTQTYICNVNHKPSNTKVDKKVEPKSCDKTHTCPPCPAPEAAGGPSVFLFPPKPKDTLMISRTPEVTCVVVSVSHEDPEVKFNWYVDGVEVHNAKTKPREEQYNSTYRVVSVLTVLHQDWLNGKEYKCKVSNKALPAPIEKTISKAKGQPREPQVYVLPPSRDELTKNQVSLLCLVKGFYPSDIAVEWESNGQPENNYLTWPPVLDSDGSFFLYSKLTVDKSRWQQGNVFSCSVMHEALHNHYTQKSLSLSPG light: DIQMTQTTSSLSASLGDRVTFSCSASQGISNYLNWYQQKPDGTVKLLIYYTSSLHLGVPSRFSGSGSGTDYSLTISNLEPEDIATYYCQQYSKLPWTFGGGTKLEIKRTVAAPSVFIFPPSDEQLKSGTASVVCLLNNFYPREAKVQWKVDNALQSGNSQESVTEQDSKDSTYSLSSTLTLSKADYEKHKVYACEVTHQGLSSPVTKSFNRGEC | binds | 499
2 | v23665 (bispecific antibody, human IgG1, kappa, L234A L235A, also called 6B3 x 1H06 (VLVH) 2x1) heavy 1: QVQLKESGPGLVAPSQSLSITCTVSGFSLTSYAISWVRQPPGKGLEWLGVIWPGGGTNYNSALKSRLSISKDNSKSQVFLKMNSLQTDDTARYYCARGTGTWYFDVWGAGTTVTVSSASTKGPSVFPLAPSSKSTSGGTAALGCLVKDYFPEPVTVSWNSGALTSGVHTFPAVLQSSGLYSLSSVVTVPSSSLGTQTYICNVNHKPSNTKVDKKVEPKSCDKTHTCPPCPAPEAAGGPSVFLFPPKPKDTLMISRTPEVTCVVVSVSHEDPEVKFNWYVDGVEVHNAKTKPREEQYNSTYRVVSVLTVLHQDWLNGKEYKCKVSNKALPAPIEKTISKAKGQPREPQVYVYPPSRDELTKNQVSLTCLVKGFYPSDIAVEWESNGQPENNYKTTPPVLDSDGSFALVSKLTVDKSRWQQGNVFSCSVMHEALHNHYTQKSLSLSPGGGGGDIVMTQTPSSVSAAVGGTVTIKCQASQTIGSSLAWYQQKPGQPPKLLIYRASTLASGVSSRFRGSGSGTEYTLTISDLECADAATYYCQWTDYGYIYIWAFGGGTEVVVKGGGGSGGGGSGGGGSQEQLVESGGGLVQPEGSLTLTCTASKFSFSSLYYMCWVRQAPGKGLEWIACVYGGSSGNTYYASWAKGRFTISKASSTTVTLQLTSLTAADTATYFCARFDVDGSGFNLWGPGTLVTVSS heavy 2: QVQLKESGPGLVAPSQSLSITCTVSGFSLTSYAISWVRQPPGKGLEWLGVIWPGGGTNYNSALKSRLSISKDNSKSQVFLKMNSLQTDDTARYYCARGTGTWYFDVWGAGTTVTVSSASTKGPSVFPLAPSSKSTSGGTAALGCLVKDYFPEPVTVSWNSGALTSGVHTFPAVLQSSGLYSLSSVVTVPSSSLGTQTYICNVNHKPSNTKVDKKVEPKSCDKTHTCPPCPAPEAAGGPSVFLFPPKPKDTLMISRTPEVTCVVVSVSHEDPEVKFNWYVDGVEVHNAKTKPREEQYNSTYRVVSVLTVLHQDWLNGKEYKCKVSNKALPAPIEKTISKAKGQPREPQVYVLPPSRDELTKNQVSLLCLVKGFYPSDIAVEWESNGQPENNYLTWPPVLDSDGSFFLYSKLTVDKSRWQQGNVFSCSVMHEALHNHYTQKSLSLSPG light: DIQMTQTTSSLSASLGDRVTISCSASQGISNYLNWYQQKPDGTVKLLIYYTSSLHSGVPSRFSGSGSGTDYSLTISNLEPEDIATYYCQQYSDLPWTFGGGTKLEIKRTVAAPSVFIFPPSDEQLKSGTASVVCLLNNFYPREAKVQWKVDNALQSGNSQESVTEQDSKDSTYSLSSTLTLSKADYEKHKVYACEVTHQGLSSPVTKSFNRGEC | binds | 464
3 | v23657 (bispecific antibody, human IgG1, kappa, L234A L235A, also called 2E8 x 8K22 (VLVH) 2x1) heavy 1: QVQLKQSGPGLVQPSQSLSITCTVSGFSLTSYGVHWVRQSPGKGLEWLGVIWSGGSTDYNAAFISRLSISKDNSKSQVFFKMNSLQADDTAIYYCARNPLTATVMDYWGQGTSVTVSSASTKGPSVFPLAPSSKSTSGGTAALGCLVKDYFPEPVTVSWNSGALTSGVHTFPAVLQSSGLYSLSSVVTVPSSSLGTQTYICNVNHKPSNTKVDKKVEPKSCDKTHTCPPCPAPEAAGGPSVFLFPPKPKDTLMISRTPEVTCVVVSVSHEDPEVKFNWYVDGVEVHNAKTKPREEQYNSTYRVVSVLTVLHQDWLNGKEYKCKVSNKALPAPIEKTISKAKGQPREPQVYVYPPSRDELTKNQVSLTCLVKGFYPSDIAVEWESNGQPENNYKTTPPVLDSDGSFALVSKLTVDKSRWQQGNVFSCSVMHEALHNHYTQKSLSLSPGGGGGDIVMTQTPASVEAAVGGTVTIKCQASQSIYSSLAWYQQKPGQSPKLLIYDASHLASGVPSRFSGSRYGTEFTLTISGVQCDDAATYYCQGGWYSSAATYVPNTFGGGTEVVVKGGGGSGGGGSGGGGSQEQLVESGGGLVQPEGSLTLTCKASGFTISNNYYMCWVRQAPGKGLEWIACIYGGISGRTYYASWAKGRFTISKTSSTTVTLQMTSLTAADTATYFCVRGYVGTSNLWGPGTLVTVSS heavy 2: QVQLKQSGPGLVQPSQSLSITCTVSGFSLTSYGVHWVRQSPGKGLEWLGVIWSGGSTDYNAAFISRLSISKDNSKSQVFFKMNSLQADDTAIYYCARNPLTATVMDYWGQGTSVTVSSASTKGPSVFPLAPSSKSTSGGTAALGCLVKDYFPEPVTVSWNSGALTSGVHTFPAVLQSSGLYSLSSVVTVPSSSLGTQTYICNVNHKPSNTKVDKKVEPKSCDKTHTCPPCPAPEAAGGPSVFLFPPKPKDTLMISRTPEVTCVVVSVSHEDPEVKFNWYVDGVEVHNAKTKPREEQYNSTYRVVSVLTVLHQDWLNGKEYKCKVSNKALPAPIEKTISKAKGQPREPQVYVLPPSRDELTKNQVSLLCLVKGFYPSDIAVEWESNGQPENNYLTWPPVLDSDGSFFLYSKLTVDKSRWQQGNVFSCSVMHEALHNHYTQKSLSLSPG light: DIVMTQSQKFMSTSVGDRVSVTCKASQNVGTNVAWYQQKPGQSRTVLIYSASYRHSGVPDRFTGSGSGTDFTLTISNVQSEDLAEYFCQQYNSYPLTFGTGTKLELKRTVAAPSVFIFPPSDEQLKSGTASVVCLLNNFYPREAKVQWKVDNALQSGNSQESVTEQDSKDSTYSLSSTLTLSKADYEKHKVYACEVTHQGLSSPVTKSFNRGEC | binds | 175
4 | v23659 (bispecific antibody, human IgG1, kappa, L234A L235A, also called 5G8 x 8K22 (VLVH) 2x1) heavy 1: QVQLQESGPGLVQPTQSLSITCTVSGFSLISYGVHWVRQSPGKGLEWLGVIWSGGSTDYNAAFISRLSISKDNSKSQVFFKMNSLQADDTAIYYCARNPLTATVMDYWGQGTSVTVSSASTKGPSVFPLAPSSKSTSGGTAALGCLVKDYFPEPVTVSWNSGALTSGVHTFPAVLQSSGLYSLSSVVTVPSSSLGTQTYICNVNHKPSNTKVDKKVEPKSCDKTHTCPPCPAPEAAGGPSVFLFPPKPKDTLMISRTPEVTCVVVSVSHEDPEVKFNWYVDGVEVHNAKTKPREEQYNSTYRVVSVLTVLHQDWLNGKEYKCKVSNKALPAPIEKTISKAKGQPREPQVYVYPPSRDELTKNQVSLTCLVKGFYPSDIAVEWESNGQPENNYKTTPPVLDSDGSFALVSKLTVDKSRWQQGNVFSCSVMHEALHNHYTQKSLSLSPGGGGGDIVMTQTPASVEAAVGGTVTIKCQASQSIYSSLAWYQQKPGQSPKLLIYDASHLASGVPSRFSGSRYGTEFTLTISGVQCDDAATYYCQGGWYSSAATYVPNTFGGGTEVVVKGGGGSGGGGSGGGGSQEQLVESGGGLVQPEGSLTLTCKASGFTISNNYYMCWVRQAPGKGLEWIACIYGGISGRTYYASWAKGRFTISKTSSTTVTLQMTSLTAADTATYFCVRGYVGTSNLWGPGTLVTVSS heavy 2: QVQLQESGPGLVQPTQSLSITCTVSGFSLISYGVHWVRQSPGKGLEWLGVIWSGGSTDYNAAFISRLSISKDNSKSQVFFKMNSLQADDTAIYYCARNPLTATVMDYWGQGTSVTVSSASTKGPSVFPLAPSSKSTSGGTAALGCLVKDYFPEPVTVSWNSGALTSGVHTFPAVLQSSGLYSLSSVVTVPSSSLGTQTYICNVNHKPSNTKVDKKVEPKSCDKTHTCPPCPAPEAAGGPSVFLFPPKPKDTLMISRTPEVTCVVVSVSHEDPEVKFNWYVDGVEVHNAKTKPREEQYNSTYRVVSVLTVLHQDWLNGKEYKCKVSNKALPAPIEKTISKAKGQPREPQVYVLPPSRDELTKNQVSLLCLVKGFYPSDIAVEWESNGQPENNYLTWPPVLDSDGSFFLYSKLTVDKSRWQQGNVFSCSVMHEALHNHYTQKSLSLSPG light: DIVMTQSQKFMSTSVGDRVSVTCKASQNVGTNVAWYQQKPGQSPKALIYSASYRDSGVPDRFTGSGSGTDFTLTISNVQSEDLAEYLCQQYNSYPLTFGAGTKLELKRTVAAPSVFIFPPSDEQLKSGTASVVCLLNNFYPREAKVQWKVDNALQSGNSQESVTEQDSKDSTYSLSSTLTLSKADYEKHKVYACEVTHQGLSSPVTKSFNRGEC | binds | 208
